Results on one molecule are retold here after doi:10.1101/2023.02.05.527200 (bioRxiv, 2023).

Assay [1] deals with T1, V5 peptide (Parainfluenza virus 5 (strain W3) …).
T1 chain: GKPIPNPLLGLDST
Briefly: ITC. A general note: In ITC the heat of successive injections is recorded.

The target in assay [2] is T1, V5 peptide. The assay can be described thus: ITC.

Where two headings read alike, the source gives them in different places.

B1: NbV5 (VHH)
VHH: EVQLQASGGGFVQPGGSLRLSCAASGTTSFGDTMGWFRQAPGKEREFVSAISRQGDKHYYADSVKGRFTISRDNSKNTVYLQMNSLRAEDTATYYCAEWMNTRREFITPYWGQGTQVTVSS
As usually defined, the Kd is the concentration at which binding is half-saturated. Higher therefore signals weaker binding. In the case of B1, the figures for the Kd with V5 peptide [1] and with V5 peptide [2] were ~218 nM and 574 nM, respectively.
